Reference: article PMC4118983, “Structural Insights into Calcium-Bound S100P and the V Domain of the RAGE Complex” (PLoS ONE, 2014)
Values joined by “and” are separate entries in the source; they are usually repeats but may differ in a detail not shown here. Equal entries are not always repeated.

Tests used:
[1] = target: the molecule itself; test: SEC; S100P proteins on a Superdex 75 column (1.6×60 cm), last step of purification
[2] = target: T1, Recombinant RAGE V domain (residues 24–121) (UniProt Q15109 24-121); test: cell-based or functional assay
T1 sequence (Q15109 24-121): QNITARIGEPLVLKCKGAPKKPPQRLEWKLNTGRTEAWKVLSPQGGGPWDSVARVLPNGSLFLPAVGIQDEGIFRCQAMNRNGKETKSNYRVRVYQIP

[3] = target: T1, Recombinant RAGE V domain (residues …); test: other fluorescence titration; intrinsic tryptophan fluorescence of 2 µM RAGE V domain (excitation 295 nm, emission 348.5 nm), S100P added in increments; 20 mM Tris-HCl pH 7.0, 100 mM NaCl, 4 mM CaCl2; 25°C; one-site binding model; details: both partners purified
[4] = target: T1, Recombinant RAGE V domain (residues …); test: ITC; S100P (2.0 mM, syringe) titrated into RAGE V domain (0.06 mM, cell); MicroCal VP-ITC; 25°C; 20 mM Tris-HCl pH 7.0, 100 mM NaCl, 4 mM CaCl2; single-site model; similar approach for the S100P mutants; details: both partners purified

Row | Kd [3] [µM] | Kd [4] | dH [4] [kcal/mol] | stoichiometry N [4] | Binder | stoichiometry N [1] | SW-480 cell proliferation (MTT assay, 48 h), 100 nM wild-type S100P, viable cell count against the control [2] [fold]
1 | ~6.8 | 6.2 ± 0.1 µM | 4.094 ± 0.02 | 1.07 ± 0.03 | Recombinant wild-type S100P (residues 1–95), calcium-bound (natural protein, UniProt P25815 1-95, looked up, S100P, residues 1-95; 15N-labelled or unlabelled in the NMR experiments; it names no tag; also called WS100P; source: E. coli BL21(DE3), pET-20b(+), purified (size exclusion chromatography, Superdex 75)) MTELETAMGMIIDVFSRYSGSEGSTQTLTKGELKVLMEKELPGFLQSGKDKDAVDKLLKDLDANGDAQVDFSEFIVFVAAITSACHKYFEKAGLK | 2 | ~1.5
2 | – | 878 µM | – | – | S100P D13A single mutant (natural protein, UniProt P25815 1-95, looked up, S100P, residues 1-95, with D13A; Used with 4 mM CaCl2; source: E. coli BL21(DE3), pET-20b(+), purified (size exclusion chromatography, Superdex 75)) MTELETAMGMIIAVFSRYSGSEGSTQTLTKGELKVLMEKELPGFLQSGKDKDAVDKLLKDLDANGDAQVDFSEFIVFVAAITSACHKYFEKAGLK | 2 | –
3 | – | 22.8 µM and 23.6 µM | – | – | S100P E5A single mutant (natural protein, UniProt P25815 1-95, looked up, S100P, residues 1-95, with E5A; Used with 4 mM CaCl2; source: E. coli BL21(DE3), pET-20b(+), purified (size exclusion chromatography, Superdex 75)) MTELATAMGMIIDVFSRYSGSEGSTQTLTKGELKVLMEKELPGFLQSGKDKDAVDKLLKDLDANGDAQVDFSEFIVFVAAITSACHKYFEKAGLK | 2 | –
4 | – | – | – | – | S100P F44G/Y88G/F89G triple mutant (natural protein, UniProt P25815 1-95, looked up, S100P, residues 1-95, with F44G, Y88G and F89G; Section 2.2 prints 'F44G/Y89G/F89G'; every other place prints F44G/Y88G/F89G; Used with 4 mM CaCl2; also called S100P F44G/Y89G/F89G (as printed in the methods); source: E. coli BL21(DE3), pET-20b(+), purified (size exclusion chromatography, Superdex 75)) MTELETAMGMIIDVFSRYSGSEGSTQTLTKGELKVLMEKELPGGLQSGKDKDAVDKLLKDLDANGDAQVDFSEFIVFVAAITSACHKGGEKAGLK | 2 | –
